These are literature values, as cited in paper PMC5855594, “Poly-N-Acetyllactosamine Neo-Glycoproteins as Nanomolar Ligands of Human Galectin-3: Binding Kinetics and Modeling” (International Journal of Molecular Sciences, 2018).

For data set [1], the target named is BSA neo-glycoprotein 16 (Bos taurus). As to the kind of experiment: competitive ELISA. In general terms: ELISA stands for enzyme-linked immunosorbent assay.
The target in data set [2] is BSA neo-glycoprotein 14 (Bos taurus) (UniProt P02769). As to the kind of experiment: competitive ELISA.
Sequence of BSA neo-glycoprotein 14 (Bos taurus) (P02769 25-607): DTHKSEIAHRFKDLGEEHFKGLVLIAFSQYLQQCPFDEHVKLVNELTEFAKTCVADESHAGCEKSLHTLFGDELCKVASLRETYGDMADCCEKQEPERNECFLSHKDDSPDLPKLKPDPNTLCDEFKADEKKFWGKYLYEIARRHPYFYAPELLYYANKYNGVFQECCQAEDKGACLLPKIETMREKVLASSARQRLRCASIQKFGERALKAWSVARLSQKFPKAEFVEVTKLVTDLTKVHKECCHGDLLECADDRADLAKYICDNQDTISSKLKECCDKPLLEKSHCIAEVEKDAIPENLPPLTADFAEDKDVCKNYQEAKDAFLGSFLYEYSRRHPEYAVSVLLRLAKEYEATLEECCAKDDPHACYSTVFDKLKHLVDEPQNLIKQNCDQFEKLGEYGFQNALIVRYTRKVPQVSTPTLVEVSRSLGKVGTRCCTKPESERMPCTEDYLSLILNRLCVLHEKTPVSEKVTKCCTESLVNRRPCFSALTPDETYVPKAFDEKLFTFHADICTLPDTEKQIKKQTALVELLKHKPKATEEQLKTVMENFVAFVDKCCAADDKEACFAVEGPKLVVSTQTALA
In data set [3] the target is BSA neo-glycoprotein 15 (Bos taurus) (UniProt P02769). As to the kind of experiment: competitive ELISA.
Sequence of BSA neo-glycoprotein 15 (Bos taurus) (P02769 25-607): as above
Data set [4] addresses BSA neo-glycoprotein 13 (Bos taurus) (UniProt P02769). As to the kind of experiment: competitive ELISA.
Data set [5] deals with BSA neo-glycoprotein 12 (Bos taurus) (UniProt P02769). The data set is described as follows: ELISA.
Sequence of BSA neo-glycoprotein 12 (Bos taurus) (P02769 25-607): as above
In data set [6] the target is BSA neo-glycoprotein 16 (Bos taurus). The data set is described as follows: ELISA.
For data set [7], the target named is BSA neo-glycoprotein 14 (Bos taurus) (UniProt P02769). As to the kind of experiment: ELISA.
For data set [8], the target named is BSA neo-glycoprotein 15 (Bos taurus) (UniProt P02769). As to the kind of experiment: ELISA.
In data set [9] the target is BSA neo-glycoprotein 13 (Bos taurus) (UniProt P02769). As to the kind of experiment: ELISA.
Sequence of BSA neo-glycoprotein 13 (Bos taurus) (P02769 25-607): as above
Data set [10] concerns the target BSA neo-glycoprotein 11 (Bos taurus) (UniProt P02769). The data set is described as follows: ELISA.
The target in data set [11] is Asialofetuin (Bos taurus) (UniProt P12763). As to the kind of experiment: ITC. (Isothermal titration calorimetry measures the heat released or taken up as one component is titrated into another.)
Sequence of Asialofetuin (Bos taurus) (P12763 19-359): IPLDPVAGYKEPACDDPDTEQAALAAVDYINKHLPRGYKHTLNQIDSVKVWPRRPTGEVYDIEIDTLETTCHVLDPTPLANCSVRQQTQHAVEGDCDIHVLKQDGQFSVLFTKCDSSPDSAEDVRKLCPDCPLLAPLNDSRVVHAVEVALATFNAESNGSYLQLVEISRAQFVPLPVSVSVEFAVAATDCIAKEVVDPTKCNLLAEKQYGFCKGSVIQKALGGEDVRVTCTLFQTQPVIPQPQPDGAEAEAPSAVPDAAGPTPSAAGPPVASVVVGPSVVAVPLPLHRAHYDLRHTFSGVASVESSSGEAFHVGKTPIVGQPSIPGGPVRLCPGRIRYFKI

Sequence of Galectin-3 (P17931 2-250): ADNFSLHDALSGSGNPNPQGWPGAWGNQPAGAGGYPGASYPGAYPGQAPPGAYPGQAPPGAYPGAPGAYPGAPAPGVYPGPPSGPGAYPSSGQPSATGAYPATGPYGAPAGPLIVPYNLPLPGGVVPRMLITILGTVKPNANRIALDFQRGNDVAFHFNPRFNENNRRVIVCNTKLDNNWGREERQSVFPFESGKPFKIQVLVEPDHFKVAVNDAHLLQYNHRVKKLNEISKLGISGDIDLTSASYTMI
Sequence of BSA neo-glycoprotein 16 (Bos taurus) (P02769 25-607): as the sequence (P02769 25-607) above
Sequence of BSA neo-glycoprotein 11 (Bos taurus) (P02769 25-607): as above

For orientation: IC50 means the concentration that gives 50% inhibition. The Kd is the constant that tells how readily two partners part at equilibrium. As for Galectin-3 (from UniProt P17931), the concentration for half-maximal inhibition (IC50) in [1] was 65 nM; in [2], 76 nM; in data set [3] it was 212 nM; in data set [4], 37 nM. Further, the Kd in [5] was 300 nM; in data set [6], 290 nM; in data set [7], 350 nM; in [8], 700 nM; in data set [9], 76 nM; in [10], 30 nM. The dissociation constant Kd in data set [11] was 7.14 nM.
